# B1: Mouse Fuc-TIX: polypeptide of 359 amino acids (SEQ ID NO:1) encoded by mouse Fuc-TIX cDNA; novel α1,3-fucosyltransferase (protein)
# chain: MTSTSKGILRPFLIVCIILGCFMACLLIYIKPTNSWVFSPMESASSVLKMKNFFSTKTDYFNETTILVWVWPFGQTFDLTSCQAMFNIQGCHLTTDRSLYNKSHAVLIHHRDISWDLTNLPQQARPPFQKWIWMNLESPTHTPQKSGIEHLFNLTLTYRRDSDIQVPYGFLTVSTNPFVFEVPSKEKLVCWVVSNWNPEHARVKYYNELSKSIEIHTYGQAFGEYVNDKNLIPTISTCKFYLSFENSIHKDYITEKLYNAFLAGSVPVVLGPSRENYENYIPADSFIHVEDFNSPSELAKYLKEVDKNNKLYLSYFNWRKDFTVNLPRFWESHACLACDHVKRHQEYKSVGNLEKWFWN
# modifications: Mouse
# notes: novel α1,3-fucosyltransferase
# B2: Mouse Fuc-TIV: known mouse α1,3-fucosyltransferase expressed from pCDM8-mFT4 for comparison (protein, UniProt Q11127 1-433, looked up)
# Alpha-(1,3)-fucosyltransferase …: MAPARQELQHESRCRPSRTVDAWRAAVATRGRHMETPGYRRRTRCGGWGLPRSVSSLAAVGLLCTALTTFICWGQLPPLPWASPAPQRLVGVLLWWEPFRGRGGYPKSPPDCSLRFNISGCRLLTDRAAYGEAQAVLFHHRDLVKELHDWPPPWGARERTDKALVLRVFDDQEGAVTLTGKALETVGSRPPGQRWVWMNFESPSHTPGLRGLAKDLFNWTLSYRTDSDVFVPYGFLYSRSDPTEQPSGLGPQLARKRGLVAWVVSNWNEHQARVRYYHQLSRHVSVDVFGRTGPGRPVPAIGLLHTVARYKFYLAFENSRHVDYITEKLWRNAFLAGAVPVVLGPDRANYERFVPRGAFIHVDDFPNAASLAAYLLFLDRNVAVYRRYFRWRRSFAVHITSFWDEQWCRTCQAVQTSGDQPKSIHNLADWFQR
# B3: Fuc-TIV: known human α1,3-fucosyltransferase, previously cloned, expressed in Namalwa cells (protein, UniProt P22083 1-530, looked up)
# Alpha-(1,3)-fucosyltransferase …: MRRLWGAARKPSGAGWEKEWAEAPQEAPGAWSGRLGPGRSGRKGRAVPGWASWPAHLALAARPARHLGGAGQGPRPLHSGTAPFHSRASGERQRRLEPQLQHESRCRSSTPADAWRAEAALPVRAMGAPWGSPTAAAGGRRGWRRGRGLPWTVCVLAAAGLTCTALITYACWGQLPPLPWASPTPSRPVGVLLWWEPFGGRDSAPRPPPDCRLRFNISGCRLLTDRASYGEAQAVLFHHRDLVKGPPDWPPPWGIQAHTAEEVDLRVLDYEEAAAAAEALATSSPRPPGQRWVWMNFESPSHSPGLRSLASNLFNWTLSYRADSDVFVPYGYLYPRSHPGDPPSGLAPPLSRKQGLVAWVVSHWDERQARVRYYHQLSQHVTVDVFGRGGPGQPVPEIGLLHTVARYKFYLAFENSQHLDYITEKLWRNALLAGAVPVVLGPDRANYERFVPRGAFIHVDDFPSASSLASYLLFLDRNPAVYRRYFHWRRSYAVHITSFWDEPWCRVCQAVQRAGDRPKSIRNLASWFER
# Assays:
# [1] = In vitro α1,3-fucosyltransferase activity, COS-1 cell lysate, pyridylaminated substrate, HPLC; assay type: biochemical; conditions: activity of human Fuc-TVI for α2,3-sialylLNnT taken as 100; 25 μM substrate, 2 hours at 37° C.; normalized to transcript amount
# Experimental: Each α1,3-fucosyltransferase expression plasmid (15 μg) was introduced into 1×10^7 COS-1 cells.
# This introduction was performed by electroporation method using a gene pulser (manufactured by Bio-Rad) according to the Bio-Rad's instructional manual attached thereto. At this time, 1 μg of a luciferase expression vector, which was constructed by inserting β-actin promoter into a Hind III site of a vector pSVOA/L [Experimental Medicine, 7, 96, (1989)] was co-introduced as an index of gene transfer efficiency.
# After the gene introduction, COS-1 cells were dispensed into three dishes for cell culture with a diameter of 15 cm and then cultured for 48 hours.
# The cells in the remaining two dishes were collected, suspended in a solution (20 mM HEPES (pH 7.4), 2% TrironX-100), then ultrasonicated for a short time period, thereby preparing cell lysate. The protein concentration of the cell lysate was measured using a micro BCA protein assay reagent kit (manufactured by PIERCE).
# The enzymatic activities of luciferase and α1,3-fucosyltransferase were measured using the cell lysate. […]
# Each of the substrates was allowed to react in assay solution with or without GDP-Fuc (sugar donator), then analyzed with HPLC. […]
# The products were detected using a fluorescent spectrum photometer FP-920 (JASCO Corporation) at excitation wavelength of 320 nm and emission wavelength of 400 nm. […]
# [2] = as above; assay type: biochemical; conditions: activity of human Fuc-TVI for α2,3-sialylLNnT taken as 100; 25 μM substrate, 2 hours at 37° C.; normalized to transcript amount; remark: listed apart in the source
# Namalwa cells = experiment: Indirect fluorescent antibody staining of Namalwa cells expressing human Fuc-TIV or Fuc-TIX (VIM-2 and Le^x sugar chains); assay type: cell-based; conditions: compared to Namalwa cells transfected with pAMo
# Experimental: Using an anti-VIM-2 sugar chain antibody (anti-CDw65 antibody, manufactured by Serotec) and anti-Le^x sugar chain antibodies [73-30 (manufactured by […] CORPORATION) and anti-CD15 antibody (C3D-1, manufactured by Dako)], indirect fluorescent antibody staining was performed for Namalwa cells expressing human Fuc-TIV or human Fuc-TIX, and for Namalwa cells transfected with the control vector pAMo, which were constructed in Example 9. The VIM-2 sugar chain is a sugar chain having the structure consisting of Galβ1-4GlcNAcβ1-3Galβ1-4(Fucα1-3)GlcNAc on non-reduced terminal of a sugar chain.
# Indirect fluorescent antibody staining was performed according to the method described in Example 1 (3). Anti-VIM-2 sugar chain antibodies, 73-30 and C3D-1 were used after dilution at 1:50, 1:100, and 1:50.
# [3] = Enzyme activity for a poly-N-acetyllactosamine sugar chain, Namalwa cell extract, HPLC; assay type: biochemical
# Excerpt: Using a poly-N-acetyllactosamine sugar chain, it was examined that to which GlcNAc in the sugar chains, human Fuc-TIX and 5 types of human α1,3-fucosyltransferase (Fuc-TIII, Fuc-TIV, Fuc-TV, Fuc-TVI, and Fuc-TVII) that had been cloned so far transferred fucose.
# Control plasmid (pAMo) and the human Fuc-TIX expression plasmid pAMo-FT9 were introduced into Namalwa cells according to the method shown in Example 1 (3), thereby obtaining stable transformants.
# Namalwa cells expressing each of the other 5 types of human α1,3-fucosyltransferases (Fuc-TIII, Fuc-TIV, Fuc-TV, Fuc-TVI, and Fuc-TVII) were obtained according to the previous report (Glycoconjugate J., 13, 802-812, Biochem. Biophys. Res. Commun., 237, 131-137, 1997).
# The resultant transformants (about 1×10^7) were collected in microtubes (1.5 ml, manufactured by Eppendolf), followed by centrifugation at 550×g for 7 minutes to collect the cells.
# The collected cells were washed with 0.9 ml of PBS. The washed cells were suspended in 100 μl of a solution which consisted of 20 mM HEPES (pH 7.2) and 1% TrironX-100, then allowed to stand at 4° C. for 10 minutes. Subsequently the cells were disrupted using a ultrasonicator (Bioruptor; manufactured by COSMO BIO CO., LTD.)
# After disruption of the cells, each supernatant was obtained by centrifugation at 550×g for 7 minutes and used as an enzyme sample. A poly-N-acetyllactosamine sugar chain (Galβ1-4GlcNAcβ1-3Galβ1-4GlcNAcβ1-3Galβ1-4GlcNAc) consisting of 6 sugars was fluorescently labeled with 2-aminobenzamide to make a sugar chain (Galβ1-4GlcNAcβ1-3Galβ1-4GlcNAcβ1-3Galβ1-4GlcNAc-2AB: abbreviated as S in FIGS. 13 and 15, and table 3), which was used as a substrate
# Florescent labeling was performed using a Signal™ 2-AB glycan labeling kit (manufactured by Oxford GlycoScience). A poly-N-acetyllactosamine sugar chain (Galβ1-4GlcNAcβ1-3Galβ1-4GlcNAcβ1-3Galβ1-4GlcNAc) was prepared according to WO98/03524.
# (§1) Samples were allowed to react in 20 μl of an assay solution [50 mM cacodylate (pH 6.8), 5 mM ATP, 10 mM L-fucose, 75 μM […] (manufactured by SIGMA), 25 mM MnCl2, 15 μM fluorescently labeled sugar chain substrate, 6 μl of the cell lysate above] at 37° C. for 2 hours, followed by treatment at 100° C. for 3 minutes to stop the reaction. Next 200 μl of water was added to the samples, and the supernatant was obtained by centrifugation at 10,000×g for 5 minutes. Using an aliquot of the supernatant (10 μl), products were analyzed by HPLC under the following conditions.
# (§2) HPLC: • Column—TSK-gel ODS-80TsQA column (4.6×250 mm; TOSOH CORPORATION) • Eluate—0.02 M ammonium acetate (pH 4.0) containing 7% methanol • Elution temperature—50° C. • Flow rate—1.0 ml/min. • Detection—Fluorescence spectrum photometer FB-920 (manufactured by JASCO Corporation) (excitation wavelength: 330 nm, radiation wavelength: 420 nm)
# [4] = Enzyme activity for monofucosylpoly-N-acetyllactosamine sugar chain P2, Namalwa cell extract, HPLC; assay type: biochemical; conditions: relative activity with the activity for P2 assumed to be 1
# Experimental: as §1, §2
# [5] = relative activity with the activity for P2 assumed to be 1
# [6] = substrate S, relative value, total of products P1, P2 and P3 by each enzyme = 100%
Molecule,"Relative activity of α1,3-fucosyltransferases for substrate α2,3-sialyl LNnT [1]","Relative activity of α1,3-fucosyltransferases for substrate LNT [2]",reactivity against the anti-VIM-2 sugar chain antibody (Namalwa cells),"Enzymatic activity, substrate S, product P1 [3, 5]","Enzymatic activity, substrate S, product P2 [3, 5]","Enzymatic activity, substrate S, product P3 [3, 5]","Production (%) P1 [3, 6] [%]","Production (%) P2 [3, 6] [%]","Production (%) P3 [3, 6] [%]","Enzymatic activity, substrate P2, product P3 [4]"
B1,0,0,,,,,,,,
B2,,0,,,,,,,,
B3,,,significant increase,1.6,4.1,0.5,22.2,72.0,5.8,1.0

# Reference: US20080015165A1, “NOVEL POLYPEPTIDE” (KYOWA HAKKO KOGYO CO., LTD., priority 1998, published 2008)
